Legend:
8.3 TcR = assay: tetramer staining of 8.3 TcR-transgenic NOD CD8+ T cells, flow cytometry
human NKG2D (human) [1] = target: human NKG2D (human) (UniProt P26718); assay: cell-based or functional assay
human NKG2D (human) [2] = target: human NKG2D (human) (UniProt P26718); assay: flow cytometry on NKL cells stained on ice with biotinylated mAb, APC-streptavidin before culture (0 h)
human NKG2D (human) [3] = target: human NKG2D (human) (UniProt P26718); assay: flow cytometry on NKL cells stained on ice with biotinylated mAb, APC-streptavidin after 16 h of culture at 37° C

Chain of UniProt P26718 (P26718 whole entry T72A): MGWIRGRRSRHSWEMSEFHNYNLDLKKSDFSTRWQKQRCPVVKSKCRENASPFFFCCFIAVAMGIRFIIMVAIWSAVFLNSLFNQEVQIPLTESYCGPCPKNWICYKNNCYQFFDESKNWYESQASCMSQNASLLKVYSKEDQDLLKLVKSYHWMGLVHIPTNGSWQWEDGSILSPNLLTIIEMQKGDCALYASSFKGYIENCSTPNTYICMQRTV

| percent of donor CD8+ T cells tetramer positive (8.3 TcR) | decrease in expression of NKG2D on the cell surface (human NKG2D (human) [1]) | mean fluorescence intensity (arbitrary units) (human NKG2D (human) [2]) | mean fluorescence intensity (arbitrary units) (human NKG2D (human) [3]) | Substance |
| --- | --- | --- | --- | --- |
| > 90% |  |  |  | NRP-V7/H-2K^d tetramer (from UniProt P01902 22-305) (peptide-MHC) |
|  | 67% | 186 | 61 | mouse anti-human NKG2D mAb (R&D Systems clone 149810) (antibody) |
